Assay results taken from patent publication US20210246218A1 (LYVGEN BIOPHARMA SUZHOU, published 2021).
Several values for one entry are separate records, joined by “and”; a condition that tells them apart may be missing. Identical values can stand only once.

Experiments:
human CD19 protein = target: T1, human CD19 protein (human, UniProt P15391 20-291); assay: ELISA, protein coated at 1 µg/mL
T1 sequence (looked up): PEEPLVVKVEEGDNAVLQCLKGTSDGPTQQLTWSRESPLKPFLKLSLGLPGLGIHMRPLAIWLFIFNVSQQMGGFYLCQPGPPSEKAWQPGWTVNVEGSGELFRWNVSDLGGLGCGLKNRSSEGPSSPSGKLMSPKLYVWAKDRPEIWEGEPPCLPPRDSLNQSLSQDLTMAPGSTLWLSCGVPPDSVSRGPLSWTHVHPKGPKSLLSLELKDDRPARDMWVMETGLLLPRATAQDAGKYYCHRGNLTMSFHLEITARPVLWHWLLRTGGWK
Description: (§1) The plate was decanted and washed once; assay diluent was added at 200 μL/well. After a 1-hour incubation at room temperature, the plate was washed with PBST one time. […] These samples were added into the plate 50 μL/well. The plate was incubated 1 hour at room temperature and then washed three times with PBST. Goat anti-human IgG-H+L HRP-conjugated at 1:100,000 dilution or goat anti-mouse IgG (H+L) secondary antibody, HRP, at 1:50,000 dilution was added to the plate at 100 μL/well. The plate was incubated 1 hour at room temperature followed by washing with PBST four times. The TMB substrate solution was added 100 μL/well. The color was permitted to develop for 15 minutes and then 100 μL/well 2N H₂SO₄ was added to terminate the reaction. Absorbance at 450 nm and 620 nm was determined by a Tecan F200 Pro reader.

human TIGIT protein = target: T2, human TIGIT protein (human, UniProt Q495A1 22-141); assay: ELISA, protein coated at 1 µg/mL
T2 sequence (looked up): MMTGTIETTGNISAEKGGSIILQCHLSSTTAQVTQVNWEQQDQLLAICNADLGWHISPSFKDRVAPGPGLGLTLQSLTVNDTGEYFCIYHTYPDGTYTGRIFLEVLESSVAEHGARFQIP
Description: as §1

mouse CD137 protein = target: T3, mouse CD137 protein (mouse, UniProt P20334 24-187); assay: ELISA, protein coated at 1 µg/mL
T3 construct: Coated on ELISA plates; also called Rodent CD137; murine CD137
T3 sequence (looked up): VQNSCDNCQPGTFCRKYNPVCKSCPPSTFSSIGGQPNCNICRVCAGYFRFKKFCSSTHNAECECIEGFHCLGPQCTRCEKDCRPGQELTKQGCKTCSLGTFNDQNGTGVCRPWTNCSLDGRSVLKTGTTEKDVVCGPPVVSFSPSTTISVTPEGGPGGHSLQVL
Description: as §1

human VISTA protein = human VISTA protein (human, UniProt Q9H7M9 33-194); assay: ELISA, protein coated at 1 µg/mL
Description: as §1

human LTBR protein = target: T4, human LTBR protein (human, UniProt P36941 31-227); assay: ELISA, protein coated at 1 µg/mL
T4 construct: also called LT β R; LTβR
Description: as §1

human CD40 protein = human CD40 protein (human, UniProt P25942 21-193); assay: ELISA, protein coated at 1 µg/mL
Description: as §1

human GITR protein = target: T5, human GITR protein (human, UniProt Q9Y5U5 26-161); assay: ELISA, protein coated at 1 µg/mL
T5 sequence (looked up): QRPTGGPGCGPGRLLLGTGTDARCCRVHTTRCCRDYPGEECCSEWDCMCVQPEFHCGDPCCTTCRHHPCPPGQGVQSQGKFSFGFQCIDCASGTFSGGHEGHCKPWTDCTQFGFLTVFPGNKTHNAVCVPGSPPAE
Description: as §1

human PD-1 protein = human PD-1 protein (human, UniProt Q15116 25-167); assay: ELISA, protein coated at 1 µg/mL
Description: as §1

human LAG-3 protein = target: T6, human LAG-3 protein (human, UniProt P18627 23-450); assay: ELISA, protein coated at 1 µg/mL
T6 sequence (looked up): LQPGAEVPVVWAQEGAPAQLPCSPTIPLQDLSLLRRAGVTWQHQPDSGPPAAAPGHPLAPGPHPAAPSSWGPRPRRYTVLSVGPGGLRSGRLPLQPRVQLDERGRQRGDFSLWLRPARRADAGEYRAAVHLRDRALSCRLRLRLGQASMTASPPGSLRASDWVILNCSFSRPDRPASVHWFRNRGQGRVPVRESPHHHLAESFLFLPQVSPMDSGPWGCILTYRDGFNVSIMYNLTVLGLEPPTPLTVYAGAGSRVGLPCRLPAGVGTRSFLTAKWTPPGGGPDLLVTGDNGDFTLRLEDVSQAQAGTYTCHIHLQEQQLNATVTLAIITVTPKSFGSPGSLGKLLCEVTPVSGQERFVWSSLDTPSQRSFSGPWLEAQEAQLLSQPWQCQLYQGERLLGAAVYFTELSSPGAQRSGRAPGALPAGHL
Description: as §1

rat CD137 protein = target: T7, rat CD137 protein (rat, UniProt Q4W8J3 24-189); assay: ELISA, protein coated at 1 µg/mL
T7 construct: Coated on ELISA plates; also called Rodent CD137
T7 sequence: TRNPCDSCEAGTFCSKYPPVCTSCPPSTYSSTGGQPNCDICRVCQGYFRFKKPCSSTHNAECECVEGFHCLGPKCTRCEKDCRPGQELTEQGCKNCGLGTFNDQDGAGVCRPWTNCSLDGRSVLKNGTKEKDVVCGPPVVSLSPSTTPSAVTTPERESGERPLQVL
Description: as §1

human PD-L1 protein = human PD-L1 protein (human, UniProt Q9NZQ7 19-238); assay: ELISA, protein coated at 1 µg/mL
Description: as §1

[1] = target: T8, cynomolgus monkey CD137 on cells (cynomolgus monkey, UniProt A9YYE7 24-254); assay: flow cytometry on CHO cells over-expressing cynomolgus CD137; average, n=6
T8 construct: whole, on cells; also called CHO-cynomolgus monkey CD137
Description: CHO cells over-expressing human or cynomolgus monkey CD137 and CHO parental cells were harvested by centrifugation at 1000 g for 3 minutes. The cells were resuspended in ice cold assay buffer at 2*10\hat{ }6/mL and transferred to 96-well V-bottom plate with 100 μL/well. […] The plate was mixed and incubated in the dark for 2 hours at 4° C. The cells were washed 3 times by centrifugation at 1000 g for 3 min and resuspended in ice cold assay buffer containing goat F(ab′)₂ anti-human IgG-Fc (PE), 100 μL/well. The plate was incubated in the dark for another 1 hour at 4° C. The cells were washed 2 times by centrifugation at 1000 g for 3 min and resuspended in ice cold assay buffer containing 2% PFA. The cells were then subjected to the flow cytometer immediately.
Mean fluorescence intensity (MFI) was calculated from the total cell population in the FCM experiments. Graphpad 7.0, “[Agonist] vs. response—Variable slope (four parameters)” was used to plot the binding MFI in dose response and to calculate FCM binding EC₅₀ values.

T8 sequence (A9YYE7 entry or part of it): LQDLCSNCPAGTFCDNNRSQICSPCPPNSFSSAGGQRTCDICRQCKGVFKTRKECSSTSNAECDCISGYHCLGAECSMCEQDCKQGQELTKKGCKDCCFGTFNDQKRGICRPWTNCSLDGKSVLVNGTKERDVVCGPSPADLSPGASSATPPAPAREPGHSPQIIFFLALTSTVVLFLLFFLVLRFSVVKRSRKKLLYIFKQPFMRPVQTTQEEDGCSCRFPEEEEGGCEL
human PD-L1 protein, sequence (Q9NZQ7 19-238 limits assumed): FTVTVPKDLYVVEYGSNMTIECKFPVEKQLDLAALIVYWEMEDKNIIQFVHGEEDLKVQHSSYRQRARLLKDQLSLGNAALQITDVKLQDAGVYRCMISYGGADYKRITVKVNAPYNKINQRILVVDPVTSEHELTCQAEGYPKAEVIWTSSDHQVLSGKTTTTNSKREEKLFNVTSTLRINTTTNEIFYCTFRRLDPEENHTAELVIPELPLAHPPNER
T4 sequence (P36941 31-227 limits assumed): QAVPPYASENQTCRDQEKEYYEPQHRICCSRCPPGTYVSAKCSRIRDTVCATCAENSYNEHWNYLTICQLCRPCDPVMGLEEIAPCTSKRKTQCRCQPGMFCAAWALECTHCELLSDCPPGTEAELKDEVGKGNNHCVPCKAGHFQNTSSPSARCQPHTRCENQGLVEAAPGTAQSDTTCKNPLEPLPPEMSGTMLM
human CD40 protein, sequence (P25942 21-193 limits assumed): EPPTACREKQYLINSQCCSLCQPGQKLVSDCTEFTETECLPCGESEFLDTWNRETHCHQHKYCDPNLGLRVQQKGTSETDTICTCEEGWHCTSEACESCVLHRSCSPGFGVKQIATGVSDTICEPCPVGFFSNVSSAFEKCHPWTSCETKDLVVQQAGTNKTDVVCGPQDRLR
human PD-1 protein, sequence (Q15116 25-167 limits assumed): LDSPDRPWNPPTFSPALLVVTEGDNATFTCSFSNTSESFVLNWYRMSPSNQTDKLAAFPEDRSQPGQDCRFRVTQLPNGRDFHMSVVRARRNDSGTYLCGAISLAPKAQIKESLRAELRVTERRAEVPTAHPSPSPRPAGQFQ

B1: Clone 3712-IgG1v (IgG1v/kappa) (antibody)
heavy: QVQLVQSGAEVKKPGASVKVSCKASGYTFAGFEMHWVRQAPGQGLEWMGAIDPKTGGTDYNQKFKDRVTMTRDTSISTAYMELSRLRSDDTAVYYCARDLGYFDVWGQGTLVTVSSASTKGPSVFPLAPSSKSTSGGTAALGCLVKDYFPEPVTVSWNSGALTSGVHTFPAVLQSSGLYSLSSVVTVPSSSLGTQTYICNVNHKPSNTKVDKKVEPKSCDKTHTCPPCPAPELLGPSVFLFPPKPKDTLMISRTPEVTCVVVDVEHEDPEVKFNWYVDGVEVHNAKTKPREEQYNSTYRVVSVLTVLHQDWLNGKEYKCKVSNKALPAPIEKTISKAKGQPREPQVYTLPPSREEMTKNQVSLTCLVKGFYPSDIAVEWESNGQPENNYKTTPPVLDSDGSFFLYSKLTVDKSRWQQGNVFSCSVMHEALHNHYTQKSLSLSPGK
light: DIQMTQSPSSLSASVGDRVTITCRASQDIRSNLNWYQQKPGGAVKLLIYYTSRLHSGVPSRFSGSGSGTDYTLTISSLQPEDFATYFCQQSEKLPRTFGGGTKVEIRRTVAAPSVFIFPPSDEQLKSGTASVVCLLNNFYPREAKVQWKVDNALQSGNSQESVTEQDSKDSTYSLSSTLTLSKADYEKHKVYACEVTHQGLSSPVTKSFNRGEC
notes: copies: 2 + 2
Does B1 bind (human CD19 protein)?
Result: no binding (tested: 10 µg/mL and 1 µg/mL)

Does B1 bind (human TIGIT protein)?
Result: no binding (tested: 10 µg/mL and 1 µg/mL)

Does B1 bind (mouse CD137 protein)?
Result: no binding (tested: 10 µg/mL and 1 µg/mL)

Does B1 bind (human VISTA protein)?
Result: no binding (tested: 10 µg/mL and 1 µg/mL)

Does B1 bind (human LTBR protein)?
Result: no binding (tested: 10 µg/mL and 1 µg/mL)

Does B1 bind (human CD40 protein)?
Result: no binding (tested: 10 µg/mL and 1 µg/mL)

Does B1 bind (human GITR protein)?
Result: no binding (tested: 10 µg/mL and 1 µg/mL)

Does B1 bind (human PD-1 protein)?
Result: no binding (tested: 10 µg/mL and 1 µg/mL)

Does B1 bind (human LAG-3 protein)?
Result: no binding (tested: 10 µg/mL and 1 µg/mL)

Does B1 bind (rat CD137 protein)?
Result: no binding (tested: 10 µg/mL and 1 µg/mL)

Does B1 bind (human PD-L1 protein)?
Result: no binding (tested: 10 µg/mL and 1 µg/mL)

And the EC50 [1]?
Its EC50 is 0.26 nM and 0.0369 µg/mL.
